According to patent publication US20260027190A1, “OVARIAN TUMOR DEUBIQUITINASE OXIDATION AND USES THEREOF” (The University of Vermont and State Agricultural College, priority 2022, published 2026):

Experiments:
OTUB1 = assay: OTUB1-SSG: GSH immunoprecipitation followed by OTUB1 Western blot; format: cell-based, mouse; details: cells treated with recombinant protein
Method: OTUB1 was one of the PSSG targets detected in IL1B-stimulated epithelial cells raising the possibility that S-glutathionylation of OTUB1 affects the stability of SLC7A11. To investigate this, immunoprecipitation of GSH followed by Western Blotting of OTUB1 in MTE cells treated with vehicle or IL1B was performed. Dithiothreitol (DTT) was incubated with cell lysates prior to immunoprecipitation as a negative control. OTUB1 levels from whole cell lysates were used as the input control. Increases in OTUB1 S-glutathionylation (OTUB1-SSG) in response to IL1B were observed, with further increases occurring in cells lacking Glrx (FIG. 4G), consistent with the role of GLRX as a deglutathionylating enzyme. Western blots were performed using cells treated with the WT- or C23S-mutant GLRX recombinant protein to examine the presence of glutaredoxin (FIG. 4H) and total PSSG (FIG. 4I) (P-value*<0.05, **<0.01, ***<0.001, ****<0.0001). GAPDH was used as a loading control. Glutathione was evaluated in MTE cells treated with recombinant WT- or C23S-mutant GLRX (FIG. 4J) and glutamate in cell culture supernatant of MTE cells treated with WT or the C23S mutant GLRX was also evaluated (FIG. 4K). […]

H522 LUAD cells = assay: GSH levels in H522 LUAD cells; format: cell-based; details: administration of GLRX to H522 LUAD cells
Method: Cell lysates were prepared in 100 mM potassium phosphate buffer containing 0.6% sulfosalicylic acid, 1 mM ethylenediaminetetraacetic acid (EDTA) and 0.01% triton-x-100. To measure total glutathione (GSH), equal amounts of proteins were incubated with 3 micromolar 5,5′-dithio-bis (2-nitrobenzoic acid) (DTNB) reagent and 2.25 microgram/ml glutathione reductase followed by the addition of 240 micromolar Nicotinamide adenine dinucleotide phosphate (NADPH). Kinetic absorbance was measured every minute at 412 nm for 20 minutes. For protein S-glutathionylation (PSSG) measurement, 400 micrograms of protein was acetone precipitated and washed thoroughly to remove any free GSH. Pellets were reconstituted in 100 mM potassium phosphate buffer with 1 mM EDTA. Samples were then incubated with 1 mM sodium borohydride (NaBH4) or water (negative control) for 1 hour at room temperature. 10% metaphosphoric acid was added to all the samples, including controls, and left on ice for 10 minutes. Samples were centrifuged at 1000×g for 15 minutes and 20 microliters were loaded in a 96 well plate to measure PSSG using, 5′-dithio-bis-(2-nitrobenzoic acid) (DTNB) recycling enzyme method as stated above.

[1] = system: mouse tracheal epithelial (MTE) cells; assay: Extracellular glutamate in cell culture supernatant of MTE cells; format: cell-based; details: direct administration of recombinant protein to MTE cells
From the text: (§1) A regulator of GSH homeostasis is the transporter system xC-, which exports glutamate and concomitantly imports cystine in a 1:1 ratio. Once inside the cells, cystine is reduced to two cysteines, the latter being the rate limiting amino acid required for GSH synthesis. These relationships were examined further. […] To address whether IL1B-induced increases in GSH are system xC- dependent, two system xC- inhibitors, erastin (Er) and sulfasalazine (SAS) were used. Cells were pretreated for one hour, followed by IL1B treatment for 24 hours. Then, GSH levels were measured in cells exposed to increasing doses of Er or SAS (FIG. 2G). Extracellular glutamate levels in cell culture supernatant of cells pretreated with 0.5 micromolar Er (left) or 100 micromolar SAS (right) for 1 hour before IL1B stimulation were also measured (FIG. 2H). […] System xC- inhibition is known to induce ferroptosis, an iron-dependent mode of cell death characterized by increased lipid peroxidation. However, no changes in cell viability using erastin (5 micromolar) or sulfasalazine (500 micromolar) were detected (FIG. 2I; P-value*<0.05, ***<0.001, ****<0.0001).
(§2) Primary mouse tracheal epithelial (MTE) cells were isolated from C57BL/6NJ wild-type or C57BL6/NJ mice lacking Glrx1 gene and cultured. Cells were grown on collagen coated plastic plates or transwell inserts with media change every 2 days until confluency. For interleukin 1B (IL1B) treatment: cells were incubated in plain Dulbecco's Modified Eagle Medium (DMEM): F12 media containing 6 mM glucose and 2 mM glutamine overnight followed by stimulation with 10 ng/ml IL1B or 0.1% bovine serum albumin (BSA) in phosphate buffered saline (PBS) (vehicle control) for 24 hours. Treatment with crastin, sulfasalazine or BSO occurred 1 hour before IL1B stimulation. Media and cells were collected for further analysis. For growing H522 and OTUB1-CRISPR-H522 cells: Roswell Park Memorial Institute (RPMI) media supplemented with 10% fetal bovine serum (FBS) and 1% pen/strep was used to grow the cells. Plasmid over-expression and OTUB1 knock-down experiments were done when cells were 60-70% confluent.
Glutamate in media was measured using Biovision kit following manufacturer's protocol.

[2] = system: mouse tracheal epithelial (MTE) cells; assay: Total GSH measurement (DTNB assay) in MTE cells; format: cell-based; details: direct administration of recombinant protein to MTE cells
Method: It has been previously shown that the pleotropic cytokine IL1B augments glycolysis in lung epithelial cells, and that interleukin 1B (IL1B) is linked to oxidative stress. The pentose phosphate pathway, an offshoot of glycolysis, regulates the redox environment by providing nicotinamide adenine dinucleotide phosphate (NADPH) reducing equivalents necessary for glutathione (GSH) homeostasis. The effects of GSH in response to IL1B were examined. Briefly, GSH was measured using a 5,5′-dithio-bis (2-nitrobenzoic acid) (DTNB) assay in both control and IL1B-stimulated mouse tracheal epithelial cells. […] Statistics on the left panel represent the total GSH levels, without differentiating between labeled and unlabeled portions of GSH (P-value*<0.05, ****<0.0001).
as §1, §2
Cell lysates were prepared in 100 mM potassium phosphate buffer containing 0.6% sulfosalicylic acid, 1 mM ethylenediaminetetraacetic acid (EDTA) and 0.01% triton-x-100. To measure total glutathione (GSH), equal amounts of proteins were incubated with 3 micromolar 5,5′-dithio-bis (2-nitrobenzoic acid) (DTNB) reagent and 2.25 microgram/ml glutathione reductase followed by the addition of 240 micromolar Nicotinamide adenine dinucleotide phosphate (NADPH). Kinetic absorbance was measured every minute at 412 nm for 20 minutes. […]

B1: GLRX: recombinant wild-type glutaredoxin protein, deglutathionylating enzyme, administered directly to cells (protein, UniProt P35754 2-106, looked up)
Glutaredoxin-1: AQEFVNCKIQPGKVVVFIKPTCPYCRRAQEILSQLPIKQGLLEFVDITATNHTNEIQDYLQQLTGARTVPRVFIGKDCIGGCSDLVSLQQSGELLTRLKQIGALQ
decreased: OTUB1-SSG (OTUB1 S-glutathionylation) (OTUB1) | GSH levels (H522 LUAD cells) | extracellular glutamate [1] | GSH levels [2]
